Data on 1 protein can be found in patent US20100221798.

The target in the data set is octadecenoyl-ACP.

B1: Synechococcus elongatus PCC7942 orf1594 protein (YP-400611; Synpcc7942-1594; acyl-ACP reductase) with C-terminal His-tag (protein)
chain: MFGLIGHLTSLEQARDVSRRMGYDEYADQGLEFWSSAPPQIVDEITVTSATGKVIHGRYIESCFLPEMLAARRFKTATRKVLNAMSHAQKHGIDISALGGFTSIIFENFDLASLRQVRDTTLEFERFTTGNTHTAYVICRQVEAAAKTLGIDITQATVAVVGATGDIGSAVCRWLDLKLGVGDLILTARNQERLDNLQAELGRGKILPLEAALPEADFIVWVASMPQGVVIDPATLKQPCVLIDGGYPKNLGSKVQGEGIYVLNGGVVEHCFDIDWQIMSAAEMARPERQMFACFAEAMLLEFEGWHTNFSWGRNQITIEKMEAIGEASVRHGFQPLALAI
As for B1, the “Km for the reduction of octadecenoyl-ACP in the presence of 2 mM NADPH (in vitro reductase assay, aldehyde formed measured by GC/MS)” value was found to be 7.8 ± 2 µM.
